Target: Orai expressed in cell membranes (Drosophila melanogaster) (UniProt Q9U6B8)
Experiment: cross-linking

Orai expressed in cell membranes (from UniProt Q9U6B8 1-351) (natural protein)
stoichiometry N: 6

— paper PMC3695727
